Measurements published in US20230065306A1 (INHIBRX, published 2023).
Like-named read-outs stand apart in the source and are kept apart here. Each block holds one binder with its values, some of them ahead of it.

Legend:
[1] = molecular target: T1, human CD123 (full-length, on cells) (human, UniProt P26951 19-378); assay: flow cytometry, Molm-13 cells expressing CD123; Median RL1-H
T1 construct: also called CD123-FL; interleukin-3 receptor alpha chain
Procedure: (§1) Binding of sdAbs to human CD123 was assessed by flow cytometry. […] HEK 293 cells were transiently transfected with a plasmid encoding full-length CD123 (UniProt Accession No. P26951-1; mature form, SEQ ID NO: 1) and used as the positive cell line in FIGS. 2A to 2M, and untransfected HEK 293 cells were used as CD123-negative cells. In FIG. 2N, Molm-13 cells, which express CD123, were used as the positive cell line. Each cell type was plated at 30,000 cells/well in FACS buffer (PBS 1% BSA, 0.1% NaN₃ pH 7.4) on a 96-well round-bottom plate. The sdAbs were diluted in FACS buffer in a 3-fold, 11 point serial dilution. The sdAb dilutions were added to the plated cells, and assay plates were incubated for 30 minutes at 4° C. After washing twice in 150 μL of FACS buffer, cells in each well were resuspended in 100 μL of 1:2000 Alexa Fluor 647-conjugated Anti-Human IgG secondary diluted in FACS buffer and incubated at 4° C. for 30 minutes. The cells were washed twice more, then bound antibody was detected by flow cytometry.
(§2) Flow cytometric analysis was performed on an Intellicyte iQue Plus and fluorescence was plotted as median fluorescence intensity. The apparent affinity (Kd, nM) was determined using one site binding non-linear regression in PRISM graph software.

[2] = molecular target: T1, human CD123 (full-length, on cells); assay: flow cytometry on Molm-13 cells, which express CD123; apparent Kd, one-site fit; apparent Kd by flow cytometry on CD123-expressing cells; the places shown do not name the cell line for this sdAb
Procedure: as §1, §2

CD123-his [3] = molecular target: T2, CD123-his; assay: BLI, CD123-his on Ni-NTA sensors preloaded with hz1B11v28, second sdAb 100 nM
T2 construct: also called histidine tagged human CD123; His-tagged CD123 ECD
T2 extracellular domain with C-terminal His tag: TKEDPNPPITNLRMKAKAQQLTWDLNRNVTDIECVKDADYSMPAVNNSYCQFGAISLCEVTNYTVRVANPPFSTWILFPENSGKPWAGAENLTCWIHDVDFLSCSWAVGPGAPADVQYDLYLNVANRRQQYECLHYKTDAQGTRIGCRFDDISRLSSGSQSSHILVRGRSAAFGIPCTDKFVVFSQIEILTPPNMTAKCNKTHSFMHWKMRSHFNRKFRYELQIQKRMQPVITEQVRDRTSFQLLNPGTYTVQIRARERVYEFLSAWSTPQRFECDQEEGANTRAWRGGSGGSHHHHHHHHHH
Procedure: (§3) The epitopes of single domain antibodies (sdAbs) that comprise VHH domains that bind CD123 were compared using Bio-Layer Interferometry. 5 ug/mL of histidine tagged human CD123 was immobilized on Nickel-nitrilotriacetic acid (Ni-NTA) coated capture sensors. 100 nM of one sdAb was then loaded onto the CD123 antigen and allowed to come to equilibrium. The sensors were then transferred into 100 nM of a second sdAb.

[4] = molecular target: T1, human CD123 (full-length, on cells); assay: flow cytometry on HEK 293 cells transfected with full-length CD123; apparent Kd, one-site fit
Procedure: as §1, §2
Target sequence in this assay (P26951 19-378): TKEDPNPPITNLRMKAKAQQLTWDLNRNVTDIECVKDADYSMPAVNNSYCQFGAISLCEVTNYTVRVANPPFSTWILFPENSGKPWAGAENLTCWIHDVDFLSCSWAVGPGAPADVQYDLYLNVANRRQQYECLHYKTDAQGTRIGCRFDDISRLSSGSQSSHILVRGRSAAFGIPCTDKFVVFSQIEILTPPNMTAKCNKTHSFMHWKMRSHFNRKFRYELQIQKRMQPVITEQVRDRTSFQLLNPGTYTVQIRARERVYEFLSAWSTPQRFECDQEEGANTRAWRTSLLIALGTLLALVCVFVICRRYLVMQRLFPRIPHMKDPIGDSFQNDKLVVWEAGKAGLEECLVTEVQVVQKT

[5] = molecular target: T1, human CD123 (full-length, on cells); assay: flow cytometry, HEK 293 cells transfected with full-length CD123 (CD123-FL); Median RL-1H
Procedure: as §1, §2
Target sequence in this assay (P26951 19-378): as above

CD123-his [6] = molecular target: T2, CD123-his; assay: BLI, CD123-his on Ni-NTA sensors preloaded with hzA5v2, second sdAb 100 nM
Procedure: as §3

[7] = molecular target: T1, human CD123 (full-length, on cells); assay: flow cytometry blocking assay, sdAb titrated on CD123-expressing HEK-293 cells with a fixed amount of IL-3-mFc
Procedure: (§4) Certain CD123-binding sdAbs were tested for the ability to block CD123 binding to IL-3 by titrating the sdAb onto CD123 expressing HEK-293 cells in the presence of a fixed amount of recombinant IL-3-mFc. Bound IL-3 was detected by flow cytometry using fluorophore conjugated anti-mouse IgG specific secondary antibody.

[8] = molecular target: T1, human CD123 (full-length, on cells); assay: as above; remark: listed apart in the source
Procedure: as §4

EC50 (read off the curve) [1]: ~1 nM | Kd [2]: 1.36 nM
B1: hz1F5v6-IgG1 (Fc fusion)
chain: EVQLVESGGGEVQPGGSLRLSCAASGRAINMYAMGWFRQAPGKEREFVAAINWNAAYTQYAESVKGRFTISRDNAKNTLYLQMSSLRAEDTAVYYCSADADYNTYVSPNKRVSYWGQGTLVTVKPDKTHTCPPCPAPGGPSVFLFPPKPKDTLMISRTPEVTCVVVDVSHEDPEVKFNWYVDGVEVHNAKTKPREEQYNSTYRVVSVLTVLHQDWLNGKEYKCKVSNKALPAPIEKTISKAKGQPREPQVYTLPPSRDELTKNQVSLTCLVKGFYPSDIAVEWESNGQPENNYKTTPPVLDSDGSFFLYSKLTVDKSRWQQGNVFSCSVMHEALHNHYTQKSLSLSPGK

binding result (CD123-his [3]): binds | Kd [4]: 2.4 nM | EC50 (read off the curve) [5]: 2 to 3 nM
B2: hz4F2v3-IgG1 (Fc fusion)
chain: EVQLVESGGGEVQPGGSLRLSCAASGRTVSNYPMAWFRQAPGKEREFVAHISWSGITSILNSVNDRFTISRDNAKNTIYLQMSSLRAEDTAVYYCAAAQRPTAGPKGPFGYWGQGTLVTVDKTHTCPPCPAPGGPSVFLFPPKPKDTLMISRTPEVTCVVVDVSHEDPEVKFNWYVDGVEVHNAKTKPREEQYNSTYRVVSVLTVLHQDWLNGKEYKCKVSNKALPAPIEKTISKAKGQPREPQVYTLPPSRDELTKNQVSLTCLVKGFYPSDIAVEWESNGQPENNYKTTPPVLDSDGSFFLYSKLTVDKSRWQQGNVFSCSVMHEALHNHYTQKSLSLSPGK
notes: also called hz4F2v3 sdAb

binding result (CD123-his [6]): binds | EC50 (read off the curve) [5]: ~1 nM | IC50 (read off the curve) [7]: ~2 nM | IC50 (read off the curve) [8]: ~0.7 nM
B3: C5-IgG1 (Fc fusion)
chain: QVTLRESGGGLVQAGGSLRLSCKGSGRAINTYAMGWFRQAPGKEREFVAAISWNGGHTRYADSVQGRFAISRDNADNTMYLQMNSLKPEDTAVYHCAAYSDYHRIATMEADADSWGQGTQVTVDKTHTCPPCPAPGGPSVFLFPPKPKDTLMISRTPEVTCVVVDVSHEDPEVKFNWYVDGVEVHNAKTKPREEQYNSTYRVVSVLTVLHQDWLNGKEYKCKVSNKALPAPIEKTISKAKGQPREPQVYTLPPSRDELTKNQVSLTCLVKGFYPSDIAVEWESNGQPENNYKTTPPVLDSDGSFFLYSKLTVDKSRWQQGNVFSCSVMHEALHNHYTQKSLSLSPGK
notes: also called sdAb C5
